# Measurements published in patent publication US6100378A, “Enhancement of the pro-fertility action of a molecule involved in a sperm-egg binding” (BioPore, Inc., priority 1999, dated 2000).
# Values joined by “and” are separate entries in the source; they are usually repeats but may differ in a detail not shown here. Equal entries are not always repeated. Bridge positions count the residues as written; N and C are the ends. Ends that are not written are not given here.
# B1: Cys-Gln-Ser-Leu-Gln-Glu-Tyr-Leu-Ala-Glu-Gln-Asn-Gln-Arg-Gln-Leu-Glu-Ser-Asn-Lys-Ile-Pro-Glu-Val-Asp-Leu-Ala-Agr-Val-Val-Ala-Pro-Phe-Met-Ser-Asn-Ile-Pro-Leu-Leu-Leu-Tyr-Pro-Gln-Asp-Arg-Pro-Arg-Ser-Gln- … (peptide)
# chain: CQSLQEYLAEQNQRQLESNKIPEVDLAAVVAPFMSNIPLLLYPQDRPRSQPQPKANEDVCVNHHHHHH
# Tests used:
# [1] = test system: frozen-thawed rooster sperm bound to an egg-membrane substrate; test: BioPore Sperm-Binding Assay: percentage of sperm binding to an egg-membrane substrate; type: cell-based; settings: 10 minutes at 37° C. exposure, 2 million sperm/well
# Protocol: All three peptides were incubated at 0, 20 and 80 ng peptide/million sperm prior to evaluation. Ration % bound calculated as: % bound with Peptide / % bound for Control; and
# We used the BioPore® Sperm-Binding Assay (Amann et al., 1999) to compare. percentage of sperm binding to an egg-membrane substrate (similar to Barbato et al., 1998) after brief in vitro exposure to three concentrations of a prior art peptide (Hammerstedt et al., 1997), representing each of two lots of peptide SEQ ID NO: 4 (after disulfide linking the cystine residues) or three concentrations of SEQ ID NO: 1 (after disulfide linking the cystine residues). Briefly, cryopreserved rooster semen (Gill et al., 1996) from broiler males (Barbato et al., 1998) was thawed, deglycerolated (Gill et al., 1996), and adjusted to provide a concentrated suspension of sperm in an appropriate salts buffer. We used one containing: 0.600 g sodium glutamate, 0.210 g potassium glutamate, 0.100 g glucose, 0.070 g sorbitol, 0.035 g magnesium sulfate, 0.210 g potassium acetate, 0.050 g potassium citrate, 0.700 g di-potassiumphosphate, 0.160 g mono-potassium phosphate, 0.800 g di-sodium phosphate, 0.100 9 potassium hydroxide, 0.300 g N,N -bis[2-hydroxyethyl]-2-aminoethanesulfonic acid, 0.400 g N-[2-hydroxyethyl]piperazine-N'-[2-ethanesulfonic acid], and 0.400 g N-tris[hydroxymethyl]methyl-2-aminoethanesulfonic acid, dissolved in distilled water to make 100 ml (Tajima et al., 1989). Aliquots of this suspension were placed in tubes containing one of the three peptide sequences at 0, 20 or 80 ng per million sperm. After mixing and 10 minutes incubation at 37° C., the suspensions were further diluted and assayed using 2 million sperm/well in the microwell assay plates. Plates were incubated at 32° C. for 60 min, after which unbound sperm were decanted, the wells washed, and the DNA in sperm bound to the egg-membranesubstrate in the microwell plates quantified (Barbato et al., 1998). […] With SEQ ID NO: 1, however, binding for suspensions exposed to either 20 or 80 ng/million sperm was greater, namely 1.20 and 1.22 the control value.
# [2] = test system: White Leghorn hens inseminated with frozen-thawed rooster sperm; test: Fertility trial: artificial insemination of hens with frozen-thawed rooster sperm exposed to peptide; type: in vivo, chicken
# Source text: Each bar based on >425 eggs.
# To compare fertility achieved after exposure of rooster sperm to SEQ ID NO: 4 and SEQ ID NO: 1, we used cryopreserved semen as in Example 1. To facilitate detection of benefit from peptides, we used a limited number of sperm for each artificial insemination. Pooled, deglycerolated semen (1 billion sperm/ml; at 0-4C.), in salts buffer as described in Example 1, was dispensed into tubes containing SEQ ID NO: 4 or SEQ ID NO: 1 to make nine suspensions: 0.0 (control), 0.2, 0.5, 1.0 or 2.0 μM and mixed. Artificial insemination of White Leghorn hens (40/group) was within 1 hour, and used 50 μl (50 million sperm). Eggs were collected daily, stored ≤7 d at 14C., incubated, and candled on day 7 (eggs with viable embryo were classed as fertile). Data resulting from four inseminations at 4-day intervals are shown (FIG. 2). It was concluded that both 0.2 and 0.5 μM SEQ ID NO: 4 improved fertility as did 0.2, 0.5, 1.0 and 2.0 μM SEQ ID NO: 1. […] The increase in fertility (above the control value) with the best concentration of SEQ ID NO: 1 (15.4 units at 2.0 μM) was 2.0× that with SEQ ID NO: 4 (7.8 units at 0.5 μM). Clearly, brief in vitro exposure of sperm to SEQ ID NO: 1 rather than SEQ ID NO: 4 before artificial insemination gave a greater increase in percentage of fertilized eggs over a greater range in concentration.
# [3] = 20 ng peptide/million sperm, SEQ ID NO: 4 as 2 preparations (lots)
Molecule,"binding relative to the value for the non-peptide control (ratio % bound with peptide / % bound for control) [1, 3]","increase in fertility (above the control value) with the best concentration ([2]; 2.0 μM peptide, percentage of fertilized eggs, 50 million sperm, four inseminations at 4-day intervals) [units]",increase in fertility with best concentration relative to that with SEQ ID NO: 4 ([2]; SEQ ID NO: 1 at 2.0 μM vs SEQ ID NO: 4 at 0.5 μM) [×],"fold range of concentrations of benefit to fertility ([2]; tested 0.2, 0.5, 1.0, 2.0 μM) [fold]",binding relative to the value for the non-peptide control (ratio % bound with peptide / % bound for control) ([1]; 80 ng peptide/million sperm)
"CQSLQEYLAEQNQRQLESNKIPEVDLARVVAPFMSNIPLLLYPQDRPRSQPQPKANEDVC (disulfide 1-60) [SEQ ID NO: 4, reference compound]",1.13 × and 1.17 ×,–,–,–,–
B1,1.20 ×,15.4,2.0,≥ 10,1.22
